Source: patent US20210275685A1 (IMMUNOGEN, published 2021)

Experiments:
huFcRn = target: T1, huFcRn (Homo sapiens, UniProt P55899); test: sensorgram (RU against time) at pH 6.0: FcRn immobilized, antibody injected at 25 nM and 100 nM; responses of about 60-70 RU and about 190 RU
T1 construct: construct not described; also called human neonatal Fc receptor

[1] = target: T2, His-tagged soluble human ADAM9 (human, UniProt Q13443 206-697); test: BIACORE, against antibodies without N54F (Table 3)
T2 construct: also called shADAM9-His; huADAM9-His
T2 sequence: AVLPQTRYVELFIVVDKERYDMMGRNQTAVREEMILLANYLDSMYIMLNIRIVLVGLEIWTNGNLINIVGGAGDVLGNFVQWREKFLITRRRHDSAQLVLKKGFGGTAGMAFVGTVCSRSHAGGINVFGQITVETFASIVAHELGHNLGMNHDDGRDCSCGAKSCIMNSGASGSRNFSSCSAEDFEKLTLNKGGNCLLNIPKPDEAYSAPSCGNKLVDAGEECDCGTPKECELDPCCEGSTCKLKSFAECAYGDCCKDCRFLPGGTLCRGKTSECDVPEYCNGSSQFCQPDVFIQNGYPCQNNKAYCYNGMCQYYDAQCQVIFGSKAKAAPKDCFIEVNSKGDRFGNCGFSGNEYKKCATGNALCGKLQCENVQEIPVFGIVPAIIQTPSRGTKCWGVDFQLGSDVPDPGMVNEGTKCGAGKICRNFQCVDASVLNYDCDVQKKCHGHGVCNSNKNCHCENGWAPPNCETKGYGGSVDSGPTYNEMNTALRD
From the text: The relative binding affinity of the humanized/optimized antibodies hMAB-A (1.1), hMAB-A (2.2), hMAB-A (2.3), hMAB-A (3.3), hMAB-A (4.4) and the chimeric chMAB-A (having murine VH/VL Domains) to huADAM was investigated using BIACORE® analysis, in which His-tagged soluble human ADAM9 (“shADAM9-His,” containing an extracellular portion of human ADAM9 fused to a histidine-containing protein) was passed over a surface coated with immobilized antibody. Briefly, each antibody was captured on a Fab2 goat anti-human Fc surface and then incubated in the presence of different concentrations (6.25-100 nM) of the shADAM9-His protein. The kinetics of binding were determined via BIACORE® analysis binding (normalized 1:1 Langmuir binding model). Binding to cynoADAM9 was examined by FACS as described above and by ELISA.

T1 sequence (P55899 24-297 limits assumed, form in doubt): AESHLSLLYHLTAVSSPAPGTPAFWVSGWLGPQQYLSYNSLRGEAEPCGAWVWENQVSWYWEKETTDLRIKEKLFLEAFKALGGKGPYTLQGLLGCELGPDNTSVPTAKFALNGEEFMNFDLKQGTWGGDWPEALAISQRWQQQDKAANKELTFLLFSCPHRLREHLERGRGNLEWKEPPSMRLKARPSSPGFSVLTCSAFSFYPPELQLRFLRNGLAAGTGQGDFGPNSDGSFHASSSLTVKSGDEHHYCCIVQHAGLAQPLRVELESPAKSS

Row | Kd (huFcRn) [nM] | fold increase in affinity [1] [fold] | Binder
1 | 161 |  | hMAB-A (2I.2) (antibody, human IgG1, kappa, also called MAB-A VH(2I); MAB-A VH(2I.2)) heavy: not shown light: DIVMTQSPDSLAVSLGERATISCKASQSVDYSGDSYMNWYQQKPGQPPKLLIYAASDLESGIPARFSGSGSGTDFTLTISSLEPEDFATYYCQQSHEDPFTFGQGTKLEIKRTVAAPSVFIFPPSDEQLKSGTASVVCLLNNFYPREAKVQWKVDNALQSGNSQESVTEQDSKDSTYSLSSTLTLSKADYEKHKVYACEVTHQGLSSPVTKSFNRGEC
2 |  | ~2 | hMAB-A (3.3) (antibody, V domains shown, human Fc; also called hMAB-A VH(3)/hMAB-A VL(3)) VH: EVQLVESGGGLVKPGGSLRLSCAASGFTFSSYWMHWVRQAPGKGLEWVGEIIPIFGHTNYNERFQGRFTISLDNSKNTLYLQMGSLRAEDTAVYYCARGGYYYYGSRDYFDYWGQGTTVTVSS VL: DIVMTQSPDSLAVSLGERATISCRASQSVDYSGDSYMNWYQQKPGQPPKLLIYAASDLESGIPARFSGSGSGTDFTLTISSLEPEDFATYYCQQSHEDPFTFGQGTKLEIK

Further lines, the binder ahead of its results:

Row | Binder | Kd (huFcRn) [nM] | fold increase in affinity [1] [fold]
3 | hMAB-A (2.2) (antibody, V domains shown, also called parental hMAB-A (2.2); hMAB-A VH(2)/hMAB-A VL(2)) VH: EVQLVESGGGLVKPGGSLRLSCAASGFTFSSYWMHWVRQAPGKGLEWVGEIIPIFGHTNYNEKFKSRFTISLDNSKNTLYLQMGSLRAEDTAVYYCARGGYYYYGSRDYFDYWGQGTTVTVSS VL: DIVMTQSPDSLAVSLGERATISCKASQSVDYSGDSYMNWYQQKPGQPPKLLIYAASDLESGIPARFSGSGSGTDFTLTISSLEPEDFATYYCQQSHEDPFTFGQGTKLEIK |  | ~2
4 | hMAB-A (2.3) (antibody, V domains shown, human Fc; also called hMAB-A VH(2)/hMAB-A VL(3)) VH: EVQLVESGGGLVKPGGSLRLSCAASGFTFSSYWMHWVRQAPGKGLEWVGEIIPIFGHTNYNEKFKSRFTISLDNSKNTLYLQMGSLRAEDTAVYYCARGGYYYYGSRDYFDYWGQGTTVTVSS VL: DIVMTQSPDSLAVSLGERATISCRASQSVDYSGDSYMNWYQQKPGQPPKLLIYAASDLESGIPARFSGSGSGTDFTLTISSLEPEDFATYYCQQSHEDPFTFGQGTKLEIK |  | ~2
